B1: Transcription factor Dp-2 (Mus musculus), Q64163-4 (parent)
chain: MIISTPQRIANSGSVLIGNPYTPAPAMVTQTHIAEAAGWVPSDRKRAREFIDSDFSESKRSKKGDKNGKGLRHFSMKVCEKVQRKGTTSYNEVADELVSEFTNSNNHLAADSAYDQENIRRRVYDALNVLMAMNIISSLPTGKKRNQVDCNSAQECQNLEIEKQRRIERIKQKRAQLQELLLQQIAFKNLVQRNRQNEQQNQGPPAVNSTIQLPFIIINTSRKTVIDCSISSDKFEYLFNFDNTFEIHDDIEVLKRMGMSFGLESGKCSLEDLKIARSLVPKALEGYITDISTGPSWLNQGLLLNSTQSVSNLDPTTGATVPQSSVNQGLCLDAEVALATGQLPASNSHQSSSAASHFSESRGETPCSFNDEDEEDEEEDPSSPE

Variants of B1 are the subject of the test. Conditions: with 1433e_mouse Ywhae.
As for S58A, the “effect of a mutation on the interaction” value is on record as “disrupting interaction”.
On to S53A, for which the “effect of a mutation on the interaction” value is “disrupting interaction”.
For S42A, the “effect of a mutation on the interaction” value is given as “disrupting interaction”.
The same measure for S56A: “disrupting interaction”.
Then S61A, with “disrupting interaction”.

The values are drawn from IntAct's records for PubMed 16482218.
